Article doi:10.1101/2021.10.10.463828 (bioRxiv, 2021)
One block for each molecule: values may come before it.

B1: Tim23, overexpressed (natural protein)
chain: MSWLFGDKTPTDDANAAVGGQDTTKPKELSLKQSLGFEPNINNIISGPGGMHVDTARLHPLAGLDKGVEYLDLEEEQLSSLEGSQGLIPSRGWTDDLCYGTGAVYLLGLGIGGFSGMMQGLQNIPPNSPGKLQLNTVLNHITKRGPFLGNNAGILALSYNIINSTIDALRGKHDTAGSIGAGALTGALFKSSKGLKPMGYSSAMVAAACAVWCSVKKRLLEK
B2: Tim17 with an affinity tag, overexpressed (natural protein)
chain: MSADHSRDPCPIVILNDFGGAFAMGAIGGVVWHGIKGFRNSPLGERGSGAMSAIKARAPVLGGNFGVWGGLFSTFDCAVKAVRKREDPWNAIIAGFFTGGALAVRGGWRHTRNSSITCACLLGVIEGVGLMFQRYAAWQAKPMAPPLPEAPSSQPLQA
modifications: disulfide bond between Cys10 and Cys77

Columns and labels:
Tim23, overexpressed [1] = target: B1; experiment: cryo-EM structure
[2] = target: Tim17 with an affinity tag, overexpressed (S. cerevisiae) (UniProt P39515); experiment: cryo-EM structure
[3] = target: B2; experiment: cryo-EM structure
Tim23, overexpressed [4] = target: B1; experiment: pull-down

stoichiometry N (Tim23, overexpressed [1]): 1
stoichiometry N [2]: 1
Molecule: Tim44, overexpressed (natural protein)

Molecule: B1
stoichiometry N [3]: 1

Molecule: B2
binding result (Tim23, overexpressed [4]): binds
